According to the supplement of paper PMC9112550, “Optimization of the antimicrobial peptide Bac7 by deep mutational scanning” (BMC Biology, 2022):

Each sequence was assayed on Escherichia coli TOP10 (assay: shrunken log2 fold change of peptide-encoding DNA abundance (4.5 h post-induction vs induction); higher = less antimicrobial activity (less host growth inhibition)). Details: time post-induction: 4.5 h; library: site-saturation at positions 5, 18, 19, 20.
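Further: peptides expressed intracellularly from a pBAD plasmid library in pooled LB shake-flask culture, induced with 0.3% L-arabinose, DNA abundance read by NGS, three biological replicates, DESeq2 with apeglm shrinkage.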

In order of falling “shrunken log2 fold change” value:
1. RRIRMRPPRLPRPRPRPHADPRP  2
2. RRIRVRPPRLPRPRPRPPQPPRP  1.38
3. RRIRYRPPRLPRPRPRPPPAPRP  0.878
4. RRIRGRPPRLPRPRPRPQGAPRP  0.807
5. RRIRCRPPRLPRPRPRPAPPPRP  0.743
6. RRIRPRPPRLPRPRPRPTRVPRP  0.547
7. RRIRWRPPRLPRPRPRPEDQPRP  0.475
8. RRIRERPPRLPRPRPRPEMWPRP  0.452
9. RRIRVRPPRLPRPRPRPPLAPRP  0.425
10. RRIRKRPPRLPRPRPRPMSTPRP  0.41
11. RRIRARPPRLPRPRPRPGWHPRP  0.378
12. RRIRYRPPRLPRPRPRPAMRPRP  0.372
13. RRIRHRPPRLPRPRPRPTHAPRP  0.233
14. RRIRERPPRLPRPRPRPVLWPRP  0.153
15. RRIRHRPPRLPRPRPRPRIEPRP  0.15
16. RRIRPRPPRLPRPRPRPEWQPRP  0.137
17. RRIRMRPPRLPRPRPRPGGPPRP  0.119
18. RRIRARPPRLPRPRPRPQEIPRP  0.107
19. RRIRKRPPRLPRPRPRPWVEPRP  0.104
20. RRIRKRPPRLPRPRPRPLNWPRP  0.0951
21. RRIRERPPRLPRPRPRPFGSPRP  0.0942
22. RRIRMRPPRLPRPRPRPHSFPRP  0.0932
23. RRIRARPPRLPRPRPRPADTPRP  0.0859
24. RRIRLRPPRLPRPRPRPEPCPRP  0.0808
25. RRIRERPPRLPRPRPRPGTCPRP  0.0777
26. RRIRQRPPRLPRPRPRPRLSPRP  0.0751
27. RRIRLRPPRLPRPRPRPRFYPRP  0.074
28. RRIRARPPRLPRPRPRPQDCPRP  0.0638
29. RRIRKRPPRLPRPRPRPGGNPRP  0.049
30. RRIRMRPPRLPRPRPRPILCPRP  0.0427
31. RRIRARPPRLPRPRPRPWMVPRP  0.0197
32. RRIRRRPPRLPRPRPRPCGSPRP  0.0143
33. RRIRTRPPRLPRPRPRPAFTPRP  0.0137
34. RRIRNRPPRLPRPRPRPMKCPRP  0.0131
35. RRIRDRPPRLPRPRPRPHFLPRP  0.0122
36. RRIRTRPPRLPRPRPRPDCWPRP  0.0105
37. RRIRIRPPRLPRPRPRPETCPRP  0.00626
38. RRIRHRPPRLPRPRPRPPCIPRP  0.00475
39. RRIRNRPPRLPRPRPRPWYKPRP  -0.00149
40. RRIRTRPPRLPRPRPRPMVHPRP  -0.00211
41. RRIRNRPPRLPRPRPRPYRLPRP  -0.00674
42. RRIRDRPPRLPRPRPRPCNLPRP  -0.0295
43. RRIRIRPPRLPRPRPRPLTEPRP  -0.044
44. RRIRPRPPRLPRPRPRPLHQPRP  -0.0461
45. RRIRRRPPRLPRPRPRPWRDPRP  -0.0485
46. RRIRWRPPRLPRPRPRPNCFPRP  -0.0571
47. RRIRDRPPRLPRPRPRPKDIPRP  -0.0599
48. RRIRSRPPRLPRPRPRPNMAPRP  -0.0738
49. RRIRMRPPRLPRPRPRPCAQPRP  -0.0823
50. RRIRVRPPRLPRPRPRPFIMPRP  -0.084
51. RRIRSRPPRLPRPRPRPFEVPRP  -0.109
52. RRIRKRPPRLPRPRPRPMHNPRP  -0.136
53. RRIRLRPPRLPRPRPRPWQFPRP  -0.196
54. RRIRQRPPRLPRPRPRPYGKPRP  -0.217
55. RRIRNRPPRLPRPRPRPAVKPRP  -0.229
56. RRIRMRPPRLPRPRPRPYTEPRP  -0.245
57. RRIRVRPPRLPRPRPRPNYVPRP  -0.254
58. RRIRDRPPRLPRPRPRPSYFPRP  -0.255
59. RRIRERPPRLPRPRPRPSMMPRP  -0.257
60. RRIRERPPRLPRPRPRPQKFPRP  -0.259
61. RRIRPRPPRLPRPRPRPYAMPRP  -0.265
62. RRIRLRPPRLPRPRPRPIFKPRP  -0.276
63. RRIRERPPRLPRPRPRPWNKPRP  -0.286
64. RRIRCRPPRLPRPRPRPSPIPRP  -0.32
65. RRIRVRPPRLPRPRPRPNDMPRP  -0.337
66. RRIRNRPPRLPRPRPRPMFIPRP  -0.383
67. RRIRRRPPRLPRPRPRPFMIPRP  -0.394
68. RRIRFRPPRLPRPRPRPHKYPRP  -0.411
69. RRIRIRPPRLPRPRPRPSTCPRP  -0.548
70. RRIRTRPPRLPRPRPRPNMSPRP  -0.562
71. RRIRTRPPRLPRPRPRPNNSPRP  -0.61
72. RRIRYRPPRLPRPRPRPKKHPRP  -0.646
73. RRIRARPPRLPRPRPRPYWFPRP  -0.775
74. RRIRNRPPRLPRPRPRPLYIPRP  -0.826
75. RRIRFRPPRLPRPRPRPYFKPRP  -0.848
